Source: the supplement of paper PMC7877785
± gives the uncertainty stated by the source.

Assay: self-splicing fitness, log relative to wild type (ln ratio); higher = more splicing; Tetrahymena group I intron in knt gene, E. coli kanamycin selection, DiMSum; sequences stand for … in CUCUCU…GGAGGGAAAAGUUAUCAGGCAUGCACCUGGUAGCUAGUCUUUAAACCAAUAGAUUGCAUCGGUUUAAAAGGCAAGACCGUCAAAUUGCGGGAAAGGGGUCAACAGCCGUUCAGUACCAAGUCUCAGGGGAAACUUUGAGAUGGCCUUGCAAAGGGUAUGGUAAUAAGCUGACGGACAUGGUCCUAACCACGCAGCCAAGUCCUAAGUCAACAGAUCUUCUGUUGAUAUGGAUGCAGUUCACAGACUAAAUGUCGGUCGGGGAAGAUGUAUUCUUCUCAUAAGAUAUAGUCGGACCUCUCCUUAAUGGGAGCUAGCGGAUGAAGUGAUGCAACACUGGAGCCGCUGGGAACUAAUUUGUAUGCGAAAGUAUAUUGAUUAGUUUUGGAGUACUCGUGGUCG
Summary of the method: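 Library with all eight P1ex-region intron nucleotides randomised, intron inside the knt kanamycin-resistance gene on pET-22b(+), in E. coli BL21(DE3). Cells grew overnight at 37°C or 30°C on LB agar with or without 25 μg/mL kanamycin (plus 100 μg/mL carbenicillin, 50 μM IPTG, 0.2% rhamnose), in six replicate transformations. Pooled colonies were amplicon-sequenced on Illumina HiSeq 2500. DiMSum fitness is the error-weighted combination of wild-type-normalised replicate fold changes, kanamycin versus none.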

With CCUUAGCAAUAUUACGCGCA the “self-splicing fitness (ln)” value (30 °C) was -2.45 ± 0.4 and the “self-splicing fitness (ln)” value (37 °C) was -1.89 ± 0.34.

In the case of CCUUAGCAAUAUUACGCGCU, the “self-splicing fitness (ln)” value (30 °C) is reported as -3.13 ± 0.32 and the “self-splicing fitness (ln)” value (37 °C) is reported as -3.41 ± 0.42.

In the case of CCUUAGCAAUAUUACGCGGG, the “self-splicing fitness (ln)” value (30 °C) is reported as -3.22 ± 0.16 and the “self-splicing fitness (ln)” value (37 °C) is reported as -2.21 ± 0.2.

In the case of CCUUAGCAAUAUUACGGAAG, the “self-splicing fitness (ln)” value (30 °C) is reported as -2.61 ± 0.14 and the “self-splicing fitness (ln)” value (37 °C) is reported as -1.13 ± 0.14.

With CCUUAGCAAUAUUACGGCUU the “self-splicing fitness (ln)” value (30 °C) was -3.99 ± 0.37 and the “self-splicing fitness (ln)” value (37 °C) was -1.99 ± 0.2.

In the case of CCUUAGCAAUAUUACGGGGC, the “self-splicing fitness (ln)” value (30 °C) is reported as -3.39 ± 0.27 and the “self-splicing fitness (ln)” value (37 °C) is reported as -3.06 ± 0.32.

For CCUUAGCAAUAUUACGGUGG, the “self-splicing fitness (ln)” value (30 °C) was -2.71 ± 0.15 and the “self-splicing fitness (ln)” value (37 °C) was -1.36 ± 0.15.

In the case of CCUUAGCAAUAUUACGUAAG, the “self-splicing fitness (ln)” value (30 °C) is reported as -1.28 ± 0.097 and the “self-splicing fitness (ln)” value (37 °C) is reported as -0.938 ± 0.12.

For CGAAAGCAAUAUUACGAAAC, the “self-splicing fitness (ln)” value (30 °C) was -2.85 ± 0.19 and the “self-splicing fitness (ln)” value (37 °C) was -2.14 ± 0.21.

With CGAAAGCAAUAUUACGAAAU the “self-splicing fitness (ln)” value (30 °C) was -2.32 ± 0.19 and the “self-splicing fitness (ln)” value (37 °C) was -2.96 ± 0.24.

With CGAAAGCAAUAUUACGAACG the “self-splicing fitness (ln)” value (30 °C) was -1.08 ± 0.13 and the “self-splicing fitness (ln)” value (37 °C) was -0.291 ± 0.14.

With CGAAAGCAAUAUUACGACAG the “self-splicing fitness (ln)” value (30 °C) was -0.552 ± 0.068 and the “self-splicing fitness (ln)” value (37 °C) was -0.0312 ± 0.081.

With CGAAAGCAAUAUUACGCACC the “self-splicing fitness (ln)” value (30 °C) was -1.17 ± 0.14 and the “self-splicing fitness (ln)” value (37 °C) was -0.396 ± 0.19.

For CGAAAGCAAUAUUACGCAUG, the “self-splicing fitness (ln)” value (30 °C) was -1.56 ± 0.1 and the “self-splicing fitness (ln)” value (37 °C) was -0.368 ± 0.11.

With CGAAAGCAAUAUUACGCGAG the “self-splicing fitness (ln)” value (30 °C) was -2.88 ± 0.25 and the “self-splicing fitness (ln)” value (37 °C) was -2.26 ± 0.22.

For CGAAAGCAAUAUUACGGAUU, the “self-splicing fitness (ln)” value (30 °C) was -3.5 ± 0.2 and the “self-splicing fitness (ln)” value (37 °C) was -2.63 ± 0.19.

In the case of CGAAAGCAAUAUUACGGCAU, the “self-splicing fitness (ln)” value (30 °C) is reported as -2.26 ± 0.12 and the “self-splicing fitness (ln)” value (37 °C) is reported as -0.29 ± 0.089.

For CGAAAGCAAUAUUACGGCCC, the “self-splicing fitness (ln)” value (30 °C) was -1.42 ± 0.19 and the “self-splicing fitness (ln)” value (37 °C) was -0.196 ± 0.35.

For CGAAAGCAAUAUUACGGGAG, the “self-splicing fitness (ln)” value (30 °C) was -3.09 ± 0.12 and the “self-splicing fitness (ln)” value (37 °C) was -2.56 ± 0.13.

In the case of CGAAAGCAAUAUUACGGGCA, the “self-splicing fitness (ln)” value (30 °C) is reported as -1.85 ± 0.11 and the “self-splicing fitness (ln)” value (37 °C) is reported as -0.138 ± 0.1.

In the case of CGAAAGCAAUAUUACGGGGU, the “self-splicing fitness (ln)” value (30 °C) is reported as -3.65 ± 0.21 and the “self-splicing fitness (ln)” value (37 °C) is reported as -1.94 ± 0.18.

With CGAAAGCAAUAUUACGGUGC the “self-splicing fitness (ln)” value (30 °C) was -3.09 ± 0.17 and the “self-splicing fitness (ln)” value (37 °C) was -2.65 ± 0.21.

With CGAAAGCAAUAUUACGGUGU the “self-splicing fitness (ln)” value (30 °C) was -2.55 ± 0.088 and the “self-splicing fitness (ln)” value (37 °C) was -1.66 ± 0.11.

With CGAAAGCAAUAUUACGUCUG the “self-splicing fitness (ln)” value (30 °C) was -0.362 ± 0.066 and the “self-splicing fitness (ln)” value (37 °C) was 0.364 ± 0.078.

In the case of CGAAAGCAAUAUUACGUGAA, the “self-splicing fitness (ln)” value (30 °C) is reported as -2.52 ± 0.092 and the “self-splicing fitness (ln)” value (37 °C) is reported as -1.17 ± 0.12.

With CGAAAGCAAUAUUACGUGUU the “self-splicing fitness (ln)” value (30 °C) was -4.1 ± 0.18 and the “self-splicing fitness (ln)” value (37 °C) was -2.54 ± 0.17.

For CGAAAGCAAUAUUACGUUAA, the “self-splicing fitness (ln)” value (30 °C) was -2.27 ± 0.15 and the “self-splicing fitness (ln)” value (37 °C) was -1.42 ± 0.12.

In the case of CGAAAGCAAUAUUACGUUGG, the “self-splicing fitness (ln)” value (30 °C) is reported as -1.66 ± 0.08 and the “self-splicing fitness (ln)” value (37 °C) is reported as -0.961 ± 0.097.

For CGACAGCAAUAUUACGAAGA, the “self-splicing fitness (ln)” value (30 °C) was -2.29 ± 0.17 and the “self-splicing fitness (ln)” value (37 °C) was -2.09 ± 0.16.

For CGACAGCAAUAUUACGAAGU, the “self-splicing fitness (ln)” value (30 °C) was -4.32 ± 0.37 and the “self-splicing fitness (ln)” value (37 °C) was -3.18 ± 0.43.

With CGACAGCAAUAUUACGACAC the “self-splicing fitness (ln)” value (30 °C) was -1.96 ± 0.13 and the “self-splicing fitness (ln)” value (37 °C) was -1.97 ± 0.22.

With CGACAGCAAUAUUACGACCG the “self-splicing fitness (ln)” value (30 °C) was -0.981 ± 0.1 and the “self-splicing fitness (ln)” value (37 °C) was 0.0442 ± 0.18.

With CGACAGCAAUAUUACGACGU the “self-splicing fitness (ln)” value (30 °C) was -1.07 ± 0.07 and the “self-splicing fitness (ln)” value (37 °C) was 0.0477 ± 0.086.

With CGACAGCAAUAUUACGAGCG the “self-splicing fitness (ln)” value (30 °C) was -2.02 ± 0.13 and the “self-splicing fitness (ln)” value (37 °C) was -0.549 ± 0.099.

With CGACAGCAAUAUUACGAUUU the “self-splicing fitness (ln)” value (30 °C) was -2.34 ± 0.075 and the “self-splicing fitness (ln)” value (37 °C) was -1.26 ± 0.087.

In the case of CGACAGCAAUAUUACGCACG, the “self-splicing fitness (ln)” value (30 °C) is reported as -3.74 ± 0.4 and the “self-splicing fitness (ln)” value (37 °C) is reported as -2.31 ± 0.35.

In the case of CGACAGCAAUAUUACGGCAA, the “self-splicing fitness (ln)” value (30 °C) is reported as -2.12 ± 0.21 and the “self-splicing fitness (ln)” value (37 °C) is reported as -1.58 ± 0.17.

For CGACAGCAAUAUUACGGUGG, the “self-splicing fitness (ln)” value (30 °C) was -1.73 ± 0.097 and the “self-splicing fitness (ln)” value (37 °C) was -0.756 ± 0.1.

With CGACAGCAAUAUUACGUAGG the “self-splicing fitness (ln)” value (30 °C) was -0.919 ± 0.062 and the “self-splicing fitness (ln)” value (37 °C) was -0.934 ± 0.076.

With CGACAGCAAUAUUACGUCGC the “self-splicing fitness (ln)” value (30 °C) was -3.71 ± 0.25 and the “self-splicing fitness (ln)” value (37 °C) was -3.74 ± 0.33.

For CGACAGCAAUAUUACGUCGU, the “self-splicing fitness (ln)” value (30 °C) was -4.07 ± 0.19 and the “self-splicing fitness (ln)” value (37 °C) was -2.29 ± 0.11.

For CGACAGCAAUAUUACGUCUG, the “self-splicing fitness (ln)” value (30 °C) was -1.54 ± 0.083 and the “self-splicing fitness (ln)” value (37 °C) was -0.38 ± 0.092.
